Measurements published in patent US20230174670A1 (JIANGSU HENGRUI PHARMACEUTICALS, published 2023).

Key:
[1] = molecular target: T1, recombinant human CD25-His protein (human, UniProt P01589 22-213); experiment: ELISA, plate coated with human CD25-His
T1 construct: range 22-213; Purchased from Sino Biological Inc. Printed construct Met1-Cys213 includes the signal peptide
T1 sequence (looked up): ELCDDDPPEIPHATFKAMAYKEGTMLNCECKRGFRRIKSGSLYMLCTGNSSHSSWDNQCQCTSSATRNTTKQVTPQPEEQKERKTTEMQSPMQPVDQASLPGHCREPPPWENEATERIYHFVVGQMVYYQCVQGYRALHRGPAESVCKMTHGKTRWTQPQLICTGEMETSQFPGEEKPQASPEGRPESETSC
Experimental: (§1) The binding activity of the chimeric anti-CD25 antibody and the CD25 recombinant protein was assayed by ELISA. The 96-well plate was coated with human CD25-His/monkey CD25-His at a concentration of 1 g/mL at 50 μL/well. The unbound antigen was washed away with a washing solution (1×PBST). After washing, the plate was blocked with 1% BSA blocking solution prepared in 1×PBST at 37° C. for 1 h. After washing 3 times with the washing solution, the test chimeric antibodies at different dilution concentrations was added and incubated in an incubator at 37° C. for 1 h. After washing 3 times with the washing solution, 100 μL of goat anti-human IgG secondary antibody diluted at 1:5000 was added and incubated in an incubator at 37° C. for 0.5 h. The plate were washed, the TMB color developing solutions A and B were mixed in a 1:1 ratio for color development. After 15 min, the color development reaction was terminated with 1M hydrochloric acid, and the fluorescence value at 450 nm was measured.

human CD25 on cells [2] = molecular target: T2, human CD25 on cells (human, UniProt P01589 22-272); experiment: flow cytometry on SU-DHL-1 cells
T2 construct: whole, on cells; also called CD25 on SU-DHL-1 cells; CHO-K1-CD25 cells (clone 2F8)
T2 sequence (looked up): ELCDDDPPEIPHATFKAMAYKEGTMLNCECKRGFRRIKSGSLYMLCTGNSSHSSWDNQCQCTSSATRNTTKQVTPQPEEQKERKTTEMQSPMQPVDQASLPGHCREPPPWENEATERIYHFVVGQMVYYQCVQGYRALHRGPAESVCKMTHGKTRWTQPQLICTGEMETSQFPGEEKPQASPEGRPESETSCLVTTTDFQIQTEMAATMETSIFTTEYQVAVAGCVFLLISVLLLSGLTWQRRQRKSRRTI
Experimental: Since the lymphoma cell line SU-DHL-1 highly expresses CD25, the binding of chimeric anti-CD25 antibodies to SU-DHL-1 cells was determined by flow cytometry. SU-DHL-1 cells in logarithmic growth phase were selected, collected, washed with PBS, and centrifuged. Each well was plated with 100 μL of 2×10⁵ cells and centrifuged at 400 g for 5 min. The test antibodies at different concentrations were added, incubated on ice for 1 h, washed with PBS, and centrifuged at 400 g for 5 min.

[3] = molecular target: T3, recombinant monkey CD25-His protein (monkey (cynomolgus), UniProt H6WS54 1-213); experiment: ELISA, plate coated with monkey CD25-His
T3 construct: range 1-213; also called cynomolgus monkey (Cyno) CD25
T3 sequence: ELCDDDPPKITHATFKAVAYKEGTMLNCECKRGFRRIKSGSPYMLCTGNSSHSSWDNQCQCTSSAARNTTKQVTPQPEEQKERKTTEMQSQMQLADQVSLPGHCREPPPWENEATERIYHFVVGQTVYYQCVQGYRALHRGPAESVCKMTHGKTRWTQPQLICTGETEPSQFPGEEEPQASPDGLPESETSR
Experimental: as §1

human CD25 on cells [4] = molecular target: T2, human CD25 on cells; experiment: cell-based or functional assay

Row | Binder | EC50 [1] [nM] | EC50 (human CD25 on cells [2]) [nM] | EC50 [3] [nM] | ADCC activity, Multiple of maximum fluorescence value (vs. IgG) (human CD25 on cells [4]) [fold]
1 | cAb028 (antibody, human IgG1, V domains shown, also called mAb028/cAb028) VH: EVQLQQSGAELVRPGASVKLSCTASGFNIKNDYVHWVKQRPEQGLEWIGYIDPDNGDTEYASKFLGKATITADTSSNTAYLQLSSLTSEGTAVYYCTTDDTSYGMFACWGLGTLVTVSA VL: DVLMTQTPLSLPVSLGDQASISCRSSQSIVHSNGNTYLEWYLQKPGQSPKLLIYKVSNRFSGVPDRFSGSGSGTDFTLKISRVEAEDLGVYYCFQGSHVPWTFGGGTKLEIK | 0.344 | 0.132 | 0.23 | –
2 | cAb046 (antibody, human IgG1, V domains shown, also called mAb046/cAb046) VH: EVQLVESGGGLVKPGGSLKLSCAASGFTFSSYAMSWVRQTPEKRLEWVATISEGGSYTYYPDNVKGRFTISRDNARNNLYLQMSHLKSEDTAMYLCVRDNPWFAYWGQGTLVTVST VL: DVLMTQTPLSLPVSLGDRASISCRSSQNIVHSNGNTYLEWFLQKPGQSPKLLIYKVSKRFSGVPDRFSGSGSGTDFTLKISRVEAEDLGVYYCFQGSHVPYTFGGGTKLEIK | 0.355 | 0.345 | 5.57 | –
3 | cAb004 (antibody, human IgG1, V domains shown, also called mAb004/cAb004) VH: EVQLQQSGAELVRPGASVKLSCTASGFNIKDDYIQWVKQRPEQGLEWIGWIDPENGDTEYASKFQDKATITSDTSSNTAYLQLSSLTSEDTAVYYCAATTFYASNYGFAYWGQGTLVTVSA VL: DVVMTQTPLSLPVSLGDQASISCRSSQSLVHSNGNTYLHWYLQKPGQSPQLLIYKVSNRFSGVPDRFSGSGSGTDFTLKISRLEAEDLGVYFCSQSTHVPYTFGGGTKLEIK | 0.255 | 0.168 | 0.311 | –
4 | cAb006 (antibody, human IgG1, V domains shown, also called mAb006/cAb006) VH: QIQLQQSGAELMKPGASVKLSCKATGYTFTGHWIEWVKQRPGHGLEWVGEILPGSNKINYNEKFKGKATFTAETSSNTVYMQLSSLTTEDSAIYYCAGGGGPHWPFAFWGQGSLVTVSA VL: DIVLTQSPASLTVSLGQRATISCRASESVNVHGAHLMHWYQQKPGQPPKLLIYAASILESGVPARFSGSGSETDFTLNIHPVEEEDAATYFCQQTIEDPRTFGGGTKLEIK | 0.2 | 0.329 | 0.234 | –
5 | PR071 (antibody, human IgG1, kappa, V domains shown) VH: EVQLVQSGSELKKPGASVKVSCKASGYTFTDYYINWVRQAPGQGLEWMAWIFPGNGNTYFNENFKDRVTLTADKFSSTAYMELSSLRSEDTAVYYCARATYDHGGYWYFDVWGQGTTVTVSS VL: EIVLSQSPATLSLSPGERATLSCRASSSVSHIHWYQQKPGSSPKPWIYATSNLASGVPGRFSGSGSGTSYSLTVSRVEAEDAATYYCQHWNSFTFGGGTKVEIKR | – | – | – | 322
6 | cAb042 (antibody, human IgG1, V domains shown, also called mAb042/cAb042) VH: QVQLQQSGPELVKSGASVKLSCKASGYTFTTYDINWMKQRPGQGLEWIGWIYPRDGSTKYNAKFKGKATLTEDTSSNTAFMELHSLTSEDSAVYFCARERIYDGSFDYWGQGTTLTVSS VL: DIVMTQSPSSLSVSAGEKVSMRCKSSQRLFNSRDQKNYLAWYQQKPGQPPKLLIYGASTRESGVPDRFTGSGSGTDFTLTISSVQAEDLAVYYCQNDHIYPLTFGAGTKLELK | 0.224 | 0.501 | 0.349 | –
7 | cAb001 (antibody, V domains shown, also called mAb001/cAb001) VH: QVTLKESGPGILQPSQTLSLTCSFSGFSLNTFGMGVGWIRQPSGKGLEWLAHIWWDDDKYYNPALKSRLTISKDTSKNQVFLKIANVDTADTVTYYCARITTEVGNYDVWGMGTTVTVSS VL: EIVLTQSPALMAASPGEKVTITCSVSSGITSNNLHWYQQKSETSPKPWIYGTSNLASGVPIRFSGSGSGTSYSLTISSMEAEDAATYYCQQWSSYPFTFGSGTKLEIK | 0.228 | 0.18 | 0.399 | –
8 | cAb002 (antibody, human IgG1, V domains shown, also called mAb002/cAb002) VH: QVTLKESGPGILQPSQTLSLTCSFSGFSLSTFGLGVGWIRQPSGKGLEWLAQIWWDDDEYYNPALKSRLTISKDTSRNQVFLKIANVDTGDTATYFCARMGDTYWYFDVWGTGTTVAVSS VL: EIVVTQSPALMAVSPGEKVTITCSLSSGITSSNLHWYQQKSETSPKPWIYGTSNLASGVPVRFSGSGSKTSYSLTISSMEAEDAATYYCQQWSSYPFTFGSGTKLEIK | 0.274 | 0.1 | 0.524 | –
9 | cAb029 (antibody, human IgG1, V domains shown, also called mAb029/cAb029) VH: QVTLKESGPGILQPSQTLSLTCSFSGFSLSTFGMGVGWIRQPSGKGLEWLAHIWWDDDEYYNPALKSRLTISKDTSKNQVFLKIANVDTADTATYYCTRIMLTTGYFDVWGTGTTVTVSS VL: EIVLTQSPALMAASPGEKVTITCTVSSGITSSNLHWYQQKSETSPKPWIYGTSNLASGVPVRFSGSGSGTSYSLTISSMEAEDAATYYCQQWSSYPFTFGSGTRLEIK | 0.166 | 0.119 | 0.115 | –
10 | 7G7B6 (antibody, V domains shown) VH: EVQLVESGGDLVQPRGSLKLSCAASGFTFSSYGMSWVRQTPDKRLELVATINGYGDTTYYPDSVKGRFTISRDNAKNTLYLQMSSLKSEDTAMYFCARDRDYGNSYYYALDYWGQGTSVTVSS VL: QIVLSQSPAILSASPGERVTMTCRASSSVSFMHWLQQKPGSSPKPWIYATSNLASGVSARFSGSGSGTSYSLTITRVEAEDAATYYCQQWSSNPPAFGGGTKLEIK | – | – | – | 13.3
11 | PR058 (antibody, human IgG1, kappa, V domains shown) VH: EVQLVESGGGLVQPGGSLRLSCAASGFTFSSYAMSWVRQAPGKRLEWVATISEGGSYTYYPDNVKGRFTISRDNSKNTLYLQMNSLRAEDTAVYLCVRDNPWFAYWGQGTLVTVSS VL: DVLMTQSPLSLPVTPGEPASISCRSSQNIVHSNGNTYLEWFLQKPGQSPKLLIYKVSKRFSGVPDRFSGSGSGTDFTLKISRVEAEDVGVYYCFQGSHVPYTFGGGTKVEIKR | – | – | – | 386
12 | PR006 (antibody, human IgG1, kappa, V domains shown) VH: EVQLVQSGAEVKKPGASVKVSCKASGYTFTGHWIEWVRQAPGQGLEWMGEILPGSNKINYNEKFKGRVTFTADTSTSTVYMELSSLRSEDTAVYYCAGGGGPHWPFAFWGQGTLVTVSS VL: DIVMTQSPDSLAVSLGERATINCRASESVNVHGAHLMHWYQQKPGQPPKLLIYAASILESGVPDRFSGSGSGTDFTLTISSLQAEDVAVYYCQQTIEDPRTFGGGTKVEIKR | – | – | – | 239
13 | PR031 (antibody, human IgG1, kappa, V domains shown) VH: EVQLVQSGAEVKKPGASVKVSCKASGYTFTTYDINWMKQHPGKGLEWIGWIYPRDGSTKYNAKFKGKATLTEDTSANTAYMELSSLRSEDTAVYYCARERIYDGSFDYWGQGTTVTVSS VL: DIVMTQSPDSLAVSLGERATINCKSSQRLFNSRDQKNYLAWYQQKPGQPPKLLIYGASTRESGVPDRFSGSGSGTDFTLTISSLQAEDVAVYYCQNDHIYPLTFGQGTKLEIKR | – | – | – | 192
14 | cAb037 (antibody, human IgG1, V domains shown, also called mAb037/cAb037) VH: QVRLQQSGPELVKPGASVQMSCKASGYTFTDYYINWVKQRPGQGLEWIAWIFPGNGNTYFNENFKDKATLSVDKFSSTAFMLLSSLTSEDSAVYFCARATYDHGGYWYFDVWGTGTTVTVSS VL: QIVLSQSPAILSASPGEKVTMTCRASSSVSHIHWYQQKPGSSPKPWIYATSNLASGVPGRFSGSGSGTSYSLTVSRVEAEDAATYYCQHWNSFTFGGGTELELK | 0.165 | 0.15 | 0.147 | –
